These results are taken from paper PMC3999984.

The target of test [1] is pT18c-Zip (leucine zipper fragment encoded by control plasmid pUT18C-zip). Kind of test: two-hybrid; bacterial adenylate cyclase two-hybrid (BACTH) in cya- E. coli BTH101; bait RbaW, preys in pKNT25 or pKT25; β-galactosidase activity (units mg^-1 dry weight) of 3 replicate co-transformants.
Test [2] has as its target pT18c-RbaW (RbaW in BACTH vector pUT18c) (Rhodobacter capsulatus). The test is described as above.

In test [1], “KT-Zip (leucine zipper fragment encoded by control plasmid pKT25-zip) (domain or fragment)” showed a β-galactosidase activity of 7340 units mg^-1.
As to “pKNT25-RbaV (RbaV in BACTH vector pKNT25) (natural protein)”, the β-galactosidase activity in test [2] came out at 1440 units mg^-1.
